Measured values reported in the supplement of paper PMC11246515.
± gives the standard deviation of the averaged measurements.

Test: total protein half-life in vivo (active degradation + dilution); higher = more stable protein
[1] = E. coli NCM3722 delta-clpP delta-lon delta-hslV, growth: N-lim chemostat, doubling time 6 h
[2] = E. coli NCM3722 delta-clpP, growth: N-lim chemostat, doubling time 6 h
[3] = E. coli NCM3722 delta-hslV, growth: N-lim chemostat, doubling time 6 h
[4] = E. coli NCM3722 delta-lon, growth: N-lim chemostat, doubling time 6 h
[5] = E. coli NCM3722 delta-smpB, growth: N-lim chemostat, doubling time 6 h
[6] = wild type E. coli NCM3722, growth: C-lim chemostat, doubling time 3 h
[7] = wild type E. coli NCM3722, growth: C-lim chemostat, doubling time 6 h
[8] = wild type E. coli NCM3722, growth: C-lim chemostat, doubling time 12 h
[9] = wild type E. coli NCM3722, growth: N-lim chemostat, doubling time 6 h
[10] = wild type E. coli NCM3722, growth: N-lim chemostat, doubling time 12 h
[11] = wild type E. coli NCM3722, growth: P-lim chemostat, doubling time 6 h
[12] = wild type E. coli NCM3722, growth: P-lim chemostat, doubling time 12 h

Sequence	total protein half-life in vivo [1]	total protein half-life in vivo [2]	total protein half-life in vivo [3]	total protein half-life in vivo [4]	total protein half-life in vivo [5]	total protein half-life in vivo [6]	total protein half-life in vivo [7]	total protein half-life in vivo [8]	total protein half-life in vivo [9]	total protein half-life in vivo [10]	total protein half-life in vivo [11]	total protein half-life in vivo [12]
MTDHTMKKNPVSIPHTVWYADDIRRGEREAADVLGLTLYELMLRAGEAAFQVCRSAYPDARHWLVLCGHGNNGGDGYVVARLAKAVGIEVTLLAQESDKPLPEEAALAREAWLNAGGEIHASNIVWPESVDLIVDALLGTGLRQAPRESISQLIDHANSHPAPIVAVDIPSGLLAETGATPGAVINADHTITFIALKPGLLTGKARDVTGQLHFDSLGLDSWLAGQETKIQRFSAEQLSHWLKPRRPTSHKGDHGRLVIIGGDHGTAGAIRMTGEAALRAGAGLVRVLTRSENIAPLLTARPELMVHELTMDSLTESLEWADVVVIGPGLGQQEWGKKALQKVENFRKPMLWDADALNLLAINPDKRHNRVITPHPGEAARLLGCSVAEIESDRLHCAKRLVQRYGGVAVLKGAGTVVAAHPDALGIIDAGNAGMASGGMGDVLSGIIGALLGQKLSPYDAACAGCVAHGAAADVLAARFGTRGMLATDLFSTLQRIVNPEVTDKNHDESSNSAP	5.24 ± 0.42 h	4.62 ± 0.52 h	4.91 ± 0.3 h	5.56 ± 0.66 h	4.42 ± 0.3 h	3.2 ± 0.32 h	6.53 ± 1.6 h	10.1 ± 3.4 h	4.25 ± 0.34 h	8.83 ± 1.5 h	5.62 ± 0.14 h	11.3 ± 0.24 h
MSDVAETLDPLRLPLQGERLIEASAGTGKTFTIAALYLRLLLGLGGSAAFPRPLTVEELLVVTFTEAATAELRGRIRSNIHELRIACLRETTDNPLYERLLEEIDDKAQAAQWLLLAERQMDEAAVFTIHGFCQRMLNLNAFESGMLFEQQLIEDESLLRYQACADFWRRHCYPLPREIAQVVFETWKGPQALLRDINRYLQGEAPVIKAPPPDDETLASRHAQIVARIDTVKQQWRDAVGELDALIESSGIDRRKFNRSNQAKWIDKISAWAEEETNSYQLPESLEKFSQRFLEDRTKAGGETPRHPLFEAIDQLLAEPLSIRDLVITRALAEIRETVAREKRRRGELGFDDMLSRLDSALRSESGEVLAAAIRTRFPVAMIDEFQDTDPQQYRIFRRIWHHQPETALLLIGDPKQAIYAFRGADIFTYMKARSEVHAHYTLDTNWRSAPGMVNSVNKLFSQTDDAFMFREIPFIPVKSAGKNQALRFVFKGETQPAMKMWLMEGESCGVGDYQSTMAQVCAAQIRDWLQAGQRGEALLMNGDDARPVRASDISVLVRSRQEAAQVRDALTLLEIPSVYLSNRDSVFETLEAQEMLWLLQAVMTPERENTLRSALATSMMGLNALDIETLNNDEHAWDVVVEEFDGYRQIWRKRGVMPMLRALMSARNIAENLLATAGGERRLTDILHISELLQEAGTQLESEHALVRWLSQHILEPDSNASSQQMRLESDKHLVQIVTIHKSKGLEYPLVWLPFITNFRVQEQAFYHDRHSFEAVLDLNAAPESVDLAEAERLAEDLRLLYVALTRSVWHCSLGVAPLVRRRGDKKGDTDVHQSALGRLLQKGEPQDAAGLRTCIEALCDDDIAWQTAQTGDNQPWQVNDVSTAELNAKTLQRLPGDNWRVTSYSGLQQRGHGIAQDLMPRLDVDAAGVASVVEEPTLTPHQFPRGASPGTFLHSLFEDLDFTQPVDPNWVREKLELGGFESQWEPVLTEWITAVLQAPLNETGVSLSQLSARNKQVEMEFYLPISEPLIASQLDTLIRQFDPLSAGCPPLEFMQVRGMLKGFIDLVFRHEGRYYLLDYKSNWLGEDSSAYTQQAMAAAMQAHRYDLQYQLYTLALHRYLRHRIADYDYEHHFGGVIYLFLRGVDKEHPQQGIYTTRPNAGLIALMDEMFAGMTLEEA	5.03 ± 0.26 h	4.28 ± 0.35 h	3.64 ± 0.075 h	3.84 ± 0.3 h	3.72 ± 0.33 h	3.13 ± 0.34 h	5.03 ± 0.71 h	13.2 ± 3.9 h	3.87 ± 0.3 h	5.71 ± 0.92 h	6.9 ± 0.91 h	10.4 ± 0.56 h
MDNAVDRHVFYISDGTAITAEVLGHAVMSQFPVTISSITLPFVENESRARAVKDQIDAIYHQTGVRPLVFYSIVLPEIRAIILQSEGFCQDIVQALVAPLQQEMKLDPTPIAHRTHGLNPNNLNKYDARIAAIDYTLAHDDGISLRNLDQAQVILLGVSRCGKTPTSLYLAMQFGIRAANYPFIADDMDNLVLPASLKPLQHKLFGLTIDPERLAAIREERRENSRYASLRQCRMEVAEVEALYRKNQIPWINSTNYSVEEIATKILDIMGLSRRMY [P0A8A4]	5.48 ± 1.3 h	4.186 ± 0.013 h	4.0273 ± 0.0032 h	4.39 ± 0.15 h	3.98 ± 0.32 h	3.15 ± 0.21 h	5.64 ± 0.63 h	9.92 ± 1.4 h	4.1527 ± 0.0038 h	6.76 ± 0.45 h	5.48 ± 0.51 h	10.7 ± 0.8 h
MKKYQQLAEQLREQIASGIWQPGDRLPSLRDQVALSGMSFMTVSHAYQLLESQGYIIARPQSGYYVAPQAIKMPKAPVIPVTRDEAVDINTYIFDMLQASRDPSVVPFASAFPDPRLFPLQQLNRSLAQVSKTATAMSVIENLPPGNAELRQAIARRYALQGITISPDEIVITAGALEALNLSLQAVTEPGDWVIVENPCFYGALQALERLRLKALSVATDVKEGIDLQALELALQEYPVKACWLMTNSQNPLGFTLTPQKKAQLVALLNQYNVTLIEDDVYSELYFGREKPLPAKAWDRHDGVLHCSSFSKCLVPGFRIGWVAAGKHARKIQRLQLMSTLSTSSPMQLALVDYLSTRRYDAHLRRLRRQLAERKQRAWQALLRYLPAEVKIHHNDSGYFLWLELPEPLDAGELSLAALTHHISIAPGKMFSTGENWSRFFRFNTAWQWGEREEQAVKQLGKLIQERL	5.76 ± 0.15 h	6.15 ± 0.15 h	6.01 ± 0.29 h	6.09 ± 0.51 h	5.54 ± 0.38 h	3.02 ± 0.075 h	5.42 ± 0.59 h	10.5 ± 0.68 h	5.45 ± 0.55 h	13.1 ± 2.8 h	6.52 ± 0.27 h	14.3 ± 2.1 h
